In US10053668B2, “Reprogramming bone endothelial cells for use in bone angiogenesis and osteogenesis” (MAX-PLANCK-GESELLSCHAFT ZUR FÖRDERUNG DER WISSENSCHAFTEN …, priority 2013, dated 2018):
Entries after “also recorded” stand apart in the source; their conditions may differ. Where a name gives a salt, the structure may show the parent alone.

B1: Noggin: recombinant Noggin (1967-NG, R&D Systems); secreted protein that binds and antagonises bone morphogenetic proteins (BMPs) (protein, UniProt Q13253 28-232, looked up)
Noggin: QHYLHIRPAPSDNLPLVDLIEHPDPIFDPKEKDLNETLLRSLLGGHYDPGFMATSPPEDRPGGGGGAAGGAEDLAELDQLLRQRPSGAMPSEIKGLEFSEGLAQGKKQRLSKKLRRKLQMWLWSQTFCPVLYAWNDLGSRFWPRYVKVGSCFSKRSCSVPEGMVCKPSKSVHLTVLRWRCQRRGGQRCGWIPIQYPIISECKCSC

Tests used:
[1] = system: type H endothelium (CD31^hi/Emcn^hi vessels); test: DFM treatment of aged mice, CD31/Osterix immunostaining of tibia sections; format: in vivo; conditions: aged 64 to 70 week-old mice; DFM i.p. every alternate day, 15 mg/ml per mouse, four weeks; vs vehicle control
Description: 3-4 weeks old male C57BL/6J mice were used for experiments involving analysis of juvenile mice. For the characterization of changes during aging, 9-11 week-old and 60-70 week-old C57BL/6J males were used as adults and aged mice, respectively. All EC-specific gene deletions were generated using Cdh5(PAC)-CreERT2 transgenic mice, which were interbred with conditional mutants carrying loxP-flanked Hif1α alleles (Hif1α^lox/lox). For experiments, Cdh5(PAC)-CreERT2^T/+ Hif1α^lox/lox were mated with Hif1α^lox/lox females. To induce Cre activity and gene deletion, pups were injected with 500 μg tamoxifen (Sigma, T5648) intraperitoneally everyday from postnatal day (P) 10 to P14. Femurs and tibiae from Cdh5(PAC)-CreERT2^T/+ Hif1α^lox/lox (Hif1α^iΔEC) mutants and Cre-negative (Hif1α^lox/lox) controls were collected on P28 after euthanasia. The same methodology was followed for gene deletion experiments involving conditional Vhl mice. For the specific genetic labeling of metaphyseal vasculature Cdh5(PAC)-CreERT2^T/+ mice were mated with Rosa26-mG/mT reporter line. At P29, Cdh5(PAC)-CreERT2^T/+/R26-mG/mT^d/+ mice received a single dose of 50 μg tamoxifen and were analyzed either 24 hrs (1 day) later or 40 days later. […]
For phenotypic analysis, mutant and littermate control samples were always processed, sectioned, stained, imaged and analysed together at the same conditions and settings. […]

[2] = system: bone endothelial cells (BECs); test: DFM treatment of cultured primary bone endothelial cells, qPCR mRNA analysis; format: cell-based, mouse; conditions: isolated primary bone endothelial cells; DFM 6.25 mg/ml of culture medium, 7 hrs; qPCR vs vehicle
Description: Tibiae and femurs from wild-type mice or mice expressing endothelial specific reporters (Flk1 GFP and Cdh5 mtmg mice) or wild-type mice were collected in sterile Ca^2+ and Mg^2+ free PBS, crushed with mortar and pestle, digested with Collagenase A (Sigma) to obtain a single cell suspension. ECs were then MACS sorted using endomucin antibody (cat. no. SC-65495) and Dynabeads sheep anti-Rat IgG (Invitrogen). Sorted ECs were then plated on dishes coated with fibronectin and cultured in endothelial cell growth medium (EBM-2, Clonetics; Lonza) supplemented with EGM-2 SingleQuots (CC-4176, Clonetic; Lonza). At first passage, cells were again MACS sorted with endomucin antibody and plated for culture. Cells were fed every third day and passaged upon confluency. […]
For the analysis of mRNA expression levels in type H or type L endothelium, CD31^hi/Emcn^hi and CD31^lo/Emcn^lo cells were sorted by FACS directly into the lysis buffer of the RNeasy Mini Kit (QIAGEN). […] Quantitative PCR (qPCR) was performed using TaqMan gene expression assays on ABI PRISM 7900HT Sequence Detection System. […]
For the analysis of mRNA expression levels, pure total bone endothelial cells were flow-sorted directly into the lysis buffer of RNeasy Mini Kit (QIAGEN). […] Quantitative PCR (qPCR) was performed using TaqMan gene expression assays on ABI PRISM 7900HT Sequence Detection System. […]

[3] = DFM treatment of aged mice, μ-CT analysis of tibia; format: in vivo, mouse; conditions: 6 weeks of DFM treatment, compared to aged control mice
Description: […] […] Animals in the control group were injected with same amount of sterile water.
Tibiae were collected, and the attached soft tissue was removed thoroughly and fixed in 4% paraformaldehyde. The fixed tibiae were analyzed using micro-CT (μCT 35) and software IPL V5.15 at Scanco Medical AG, Switzerland. A voxel size of 12 μm was chosen in all three spatial dimensions. For each sample, 148 from 232 slices were evaluated covering a total of 1.776 mm at a voltage of 70kVp, intensity 114 μA, integration time 1200 ms.

long bone = test: DFM treatment of aged mice, qPCR of osteoprogenitor and osteoblast markers in long bone; format: in vivo, mouse; conditions: DFM-treated vs control
Description: For DFM treatment, freshly prepared deferoxamine mesylate (Sigma) in water was injected intraperitoneally every alternate day at the dose of 15 mg/ml per mouse over four weeks. For μ-CT analysis, this treatment was continued for five weeks. Animals in the control group were injected with same amount of sterile water.
For the analysis of mRNA expression levels in type H or type L endothelium, CD31^hi/Emcn^hi and CD31^lo/Emcn^lo cells were sorted by FACS directly into the lysis buffer of the RNeasy Mini Kit (QIAGEN). Total RNA was isolated according to manufacturer's protocol. A total of 100 ng RNA per reaction was used to generate cDNA with the iScript cDNA Synthesis System (Bio-Rad). Quantitative PCR (qPCR) was performed using TaqMan gene expression assays on ABI PRISM 7900HT Sequence Detection System. The FAM-conjugated TaqMan probes Tgfb1, Tgfb3, Fgf1, Pdgfa, Pdgfb and Kitl were used along with TaqMan Gene Expression Master Mix (Applied Biosystems). Gene expression assays were normalized to endogenous VIC-conjugated Actb probes as standard. For analysis of mRNA expression levels from whole bones, dissected femurs were immediately crushed finely, digested with collagenase, centrifuged to obtain a pellet, which was then lysed into lysis buffer of RNeasy Mini Kit (QIAGEN). […]

[4] = system: murine mesenchymal progenitors; test: Osteoblastic differentiation of cultured murine mesenchymal progenitors with Noggin; format: cell-based, mouse; conditions: in vitro, recombinant Noggin
Rbpj^iΔEC mice [5] = test: Systemic recombinant Noggin in Rbpj^iΔEC mice, immunostaining of tibia sections; format: in vivo, mouse
Description: For Rbpj deletion in the postnatal vasculature, mice carrying loxP-flanked Rbpj gene (Rbpj^floxed) were interbred with mice expressing endothelial specific tamoxifen inducible CreERT2 i.e. Cdh5(PAC)-CreERT2. The males with genotype Rbpj^floxed/floxed Cdh5(PAC)-CreERT2^T/+ were interbred with Rbpj^floxed/floxed females to generate litters with Rbpj^floxed/floxed Cdh5(PAC)-CreERT2^T/+ (Rbpj^iΔEC) and Rbpj^floxed/floxed (control) genotypes. To induce Cre activity and gene deletion, all the litters were injected with 500 μg tamoxifen (Sigma, T5648) intraperitoneally everyday from P10 to P14. Femur and tibia were collected from these animals for analysis on P28 after euthanasia. The same methodology was followed for all gene deletion experiments of Fbxw7 ^iΔEC, Dll^iΔEC, Dll4^iΔEC, Jag1^iΔEC and Rbpj^iΔOB. For osteoblast specific loss of function experiments, Col1α1-CreERT2 mice (embryos purchased from Institut Clinique de la Souris, France) were interbred with Rbpj^floxed/floxed mice. Further, Rbpj floxed/floxed Col1a1-CreERT2^T/+ males were interbred with Rbpj^floxed/floxed females to generate litters with Rbpj^floxed/floxed Col1aCreERT2^T/+ (Rbpj^iΔOB) and Rbpj^floxed/floxed (control) genotypes.
(§1) For experiments involving Noggin treatment, both control and Rbpj^iΔEC mice were injected intraperitoneally once daily with 500 μg/kg recombinant Noggin (1967-NG, R&D Systems) dissolved in PBS in a volume of 50 μl per dose. Another set of control and Rbpj^iΔEC mice was injected with 50ul PBS for experimental control. All protein injections were done from P15 to P27, after tamoxifen treatment (P10-P14) before the day of analysis (P28).
Freshly dissected bone tissues collected from wild-type mice or from mutants and their control littermates were immediately fixed in ice-cold 4% paraformaldehyde solution for 4 hrs. Decalcification was carried out with 0.5M EDTA at 4° C. with constant shaking and decalcified bones were immersed into 20% sucrose and 2% polyvinylpyrrolidone (PVP) solution for 24 hr. Finally, the tissues were embedded and frozen in 8% gelatin (porcine) in presence of 20% sucrose and 2% PVP. For immunofluorescent stainings and morphological analyses, sections were generated using low-profile blades on a Leica CM3050 cryostat.
For phenotypic analysis, mutant and littermate control samples were always processed, sectioned, stained, imaged and analysed together at the same conditions and settings. For immunostaining, bone sections were air-dried, permeabilised for 10 min in 0.3% Triton X-100, blocked in 5% donkey serum at room temperature for 30 min, and probed with the primary antibodies diluted in 5% donkey serum in PBS for 2 hr at room temperature (RT) or overnight at 4° C.
Following are the details of primary antibodies used: Endomucin (sc-65495, Santa Cruz) used at 1:100 dilution; Pecam1 conjugated to Alexa fluor 488 (FAB3628G, R&D Systems) used at dilution 1:100; Pecam1 (553370, BD Pharmingen) used at 1:100 dilution; Osterix (sc-22536-R, Santa Cruz) used at dilution 1:200; Runx2 (MAB2006, R&D Systems) used at dilution 1:200; alpha SMA-Cy3 (C6198, Sigma) used at dilution 1:100; Hif1α (ab65979, Abcam) used at dilution 1:100; Collagen type 1 (AB675P; Millipore); Osteopontin (AF808, R&D Systems) used at dilution of 1:200, Mct4 (sc-50329 Santa Cruz) used at dilution of 1:100 and Glut1 (07-1401, Millipore) used at dilution of 1:100, NG2 Chondroitin Sulphate Proteoglycan (AB5320, Millipore) used at a dilution of 1:100.

Rbpj^iΔEC mice [6] = test: Systemic recombinant Noggin in Rbpj^iΔEC mice, calcein double labelling; format: in vivo, mouse; conditions: Noggin 500 μg/kg i.p. once daily P15 to P27, 7 day interval
Description: as §1
Calcein double labeling was performed to calculate mineral apposition rate (MAR).
Mice were given intraperitoneal injections of 10 mg/kg calcein (Sigma, C0875) dissolved in 2% sodium bicarbonate solution at 10th day and 3rd day before euthanasia. Bones were fixed in 4% PFA, embedded in 8% gelatin and 2% PVP and cryosectioned. Single plane images were acquired from the sections using LSM 780 (Carl Zeiss). Mineral Apposition Rate (MAR) is the amount of bone formed during a particular time interval. It is calculated using the distance between the midpoints of two labels divided by time interval (7days).

[7] = Rbpj^iΔEC mice, Noggin 500 μg/kg i.p. once daily P15 to P27, analysis P28, vs saline-treated mutants

| Molecule | Osterix-positive cells (osteoprogenitors) in association with type H vessels [1] | type H endothelium (CD31^hi/Emcn^hi vessels) in long bone [1] | expression of growth factor mRNAs Pdgfa, Pdgfb, Fgf1, Tgfb1, Tgfb3 [2] | transcripts for CD31 and Endomucin [2] | bone mass (μ-CT) [3] | expression levels of mRNAs Sp7, Bglap and lbsp in long bone (long bone) | differentiation of primary mesenchymal cells into osteoblasts [4] | alkaline phosphatase (ALP) expression ([4]; 28 days of differentiation) | mineral nodule formation (Alizarin staining; osteoblast maturation) ([4]; 28 days of differentiation) | Endomucin staining intensity (Rbpj^iΔEC mice [5]; Noggin-treated Rbpj^iΔEC tibia sections) | abundance of Runx2+ early osteoprogenitors in metaphysis (Rbpj^iΔEC mice [5]; [7]) | number of Osterix+ (Osx+) cells in metaphysis (Rbpj^iΔEC mice [5]; [7]) | organization of the Rbpj^iΔEC metaphysis (Rbpj^iΔEC mice [5]; [7]) | organization of the Rbpj^iΔEC bone vasculature (endothelial column and arch structures) (Rbpj^iΔEC mice [5]; Rbpj^iΔEC mice, Noggin 500 μg/kg i.p. once daily P15 to P27, endomucin immunostaining) | trabecular bone formation (osteopontin immunostaining) (Rbpj^iΔEC mice [5]; Rbpj^iΔEC mice, recombinant Noggin vs Saline) | bone formation and mineral apposition rate (Rbpj^iΔEC mice [6]) | bone formation and mineral apposition rate (Rbpj^iΔEC mice [6]; listed as noggin) |
| --- | --- | --- | --- | --- | --- | --- | --- | --- | --- | --- | --- | --- | --- | --- | --- | --- | --- |
| CC(=O)N(O)CCCCCNC(=O)CCC(=O)N(O)CCCCCNC(=O)CCC(=O)N(O)CCCCCN [DFM, deferoxamine mesylate] | induces; also recorded: emergence | induces; also recorded: substantial expansion | induction; also recorded: increase | up regulation | significant increase | significantly increased |  |  |  |  |  |  |  |  |  |  |  |
| B1 |  |  |  |  |  |  | Inhibition; also recorded: inhibits | enhanced; also recorded: maintained even after 28 days | supressed; also recorded: delayed | increased | increases | reduced; also recorded: reduces the number of Osterix+ cells to control levels | restores | partially restored | partial restoration | restored; also recorded: significantly restores | restores |
